# Measurements: article PMC4794788, “Cell‐free synthesis of isotopically labelled peptide ligands for the functional characterization of G protein‐coupled receptors” (FEBS Open Bio, 2015)
# “Also recorded” adds a separate entry of the source.
# T1: human complement 5a receptor (C5aR) (Homo sapiens, UniProt P21730)
# T1 construct: 10x His (N); FLAG (N); StrepII (C); made in house; host or cells: Sf9 insect cells (recombinant baculovirus, pOET5 / flashBAC); membrane preparation
# T1 sequence (P21730 1-350): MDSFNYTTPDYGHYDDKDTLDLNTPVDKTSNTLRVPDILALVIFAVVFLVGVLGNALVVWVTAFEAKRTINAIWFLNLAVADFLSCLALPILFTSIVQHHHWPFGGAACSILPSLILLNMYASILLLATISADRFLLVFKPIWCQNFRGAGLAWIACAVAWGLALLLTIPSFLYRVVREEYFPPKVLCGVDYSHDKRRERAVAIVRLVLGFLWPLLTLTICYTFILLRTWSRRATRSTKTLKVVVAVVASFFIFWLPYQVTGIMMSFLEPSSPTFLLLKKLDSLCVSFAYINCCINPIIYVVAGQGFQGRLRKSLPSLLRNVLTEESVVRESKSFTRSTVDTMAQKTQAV
# Legend:
# [1] = target: C5aR; conditions: C5aR in native human tissues; literature comparison; cited from earlier work
# Method: Table 1 Binding parameters of cell‐free synthesized radioligands | column: Literature KD [nM] || As the interaction between C5a and its receptor is mainly mediated by the disulphide bridged core region of C5a (residues 21–55, 22) and the C‐terminal region (especially Arg^74 30) the N‐terminal hexa‐histidine tag was not removed. The cell‐free synthesized ligand binds to the complement 5a receptor with a dissociation constant of 1.18 ± 0.27 nM (Fig. 4A), which corresponds to values determined by Gerard and Gerard for C5aR in native human tissues (1 nM 31, Table 1). Competition experiments with the unlabelled small molecule inverse agonist NDT 9513727 and the peptide antagonist H2N‐ChaW resu ...
# [2] = target: T1, human complement 5a receptor (C5aR); experiment: Specific binding of [^3H]‐C5a^CF to C5aR (optimization of translation and assay conditions)
# Method: For the cell‐free synthesis of radioligands one amino acid was replaced with a tritiated variant depending on its abundance in the respective ligand. Complement 5a was produced in the presence of 1 μM (FM)/2.1 μM (RM) L‐[2,3‐^3H]‐proline (specific activity 55 Ci·mmol^−1, Perkin Elmer, Boston, USA). […] The cell‐free reaction was initiated omitting the labelled amino acid and incubated at 30 °C, 100 rpm for 3 h. The reaction mix was removed from the D‐tube™ dialyzer and incubated with 0.2 mL Ni‐NTA magnetic agarose beads suspension (Qiagen) per mL reaction mix for 10 min to remove undesired side products translated with endogenously present amino acids from the S30 extract. The reaction mix was removed from the magnetic beads, supplemented with 0.25 mM L‐histidine to account for potential losses in the IMAC (immobilized metal ion affinity chromatography) step and the tritium‐labelled amino acid. The feeding mix was discarded and replaced with a fresh mix containing the labelled amino acid. Reactions were incubated at 30 °C in a water bath under constant shaking overnight.
# For purification of tritium‐labelled complement 5a ([^3H]‐C5a^CF), reaction and feeding mixes were pooled and applied to a 1 mL HisTrap FF column (GE Healthcare) equilibrated in buffer C^C5a using a peristaltic pump. The column was washed with 4 CV buffer C1^C5a, 4 CV buffer C2^C5a and eluted in 4 CV buffer D^C5a. […] Buffer exchange to buffers C^C5a or C^ET−1 was performed by repeated concentration and dilution in a 3 kDa MWCO concentrator (Amicon) and protein concentration was calculated using the specific activity of incorporated [^3H]‐Pro or [^3H]‐Phe residues.
# The complement 5a receptor was coproduced with Gαi2 in Sf9 insect cells. The cDNA encoding the human complement 5a receptor flanked by an N‐terminal 10x His and FLAG tag and a C‐terminal StrepII tag was cloned into the pOET5 transfer vector (Oxford Expression Technologies, Oxford, UK). pOET5 contains two expression cassettes, the receptor is expressed under the control of a polyhedron promoter; Gαi2 expression is regulated by a p10 promoter. […]
molecule,measurement,setting,value
"[^3H]‐C5a^CF: cell‐free‐synthesized tritium‐labelled complement 5a with N‐terminal hexa‐histidine tag; contains three proline residues (protein, UniProt P01031 678-751, looked up, C5a anaphylatoxin tritium label) C5a anaphylatoxin: TLQKKIEEIAAKYKHSVVKKCCYDGACVNNDETCEQRAARISLGPRCIKAFTECCVVASQLRANISHKDMQLGR",Kd,[1],1 nM
same,Specific binding to the C5aR,"[2]; first translation trials, produced with DsbA and IMAC purified, no pretranslation step",only low and nonsignificant binding to the C5aR; also recorded: specific binding is low and nonsignificant
same,Specific binding to the C5aR,[2]; pretranslation step plus NaCl in assay and wash buffer,further increases the detected specific binding
same,Specific binding to the C5aR,[2]; with pretranslation step to remove endogenous proline,binding specifically to the C5aR and displaying low nonspecific background; also recorded: strongly increased (dark grey bar) and statistically significant
